For the experiment, the target named is T1, ATF domain of uPA (Homo sapiens, UniProt P00749).
T1 construct: expressed in transfected cells
Description: Yeast two hybrid with ATF domain of uPA. In kind it is binding. The text has this: […]
In order to explore how GhJAZ1 enters cancer cells, we cloned the genes of most tumor surface receptors, including uPAR (NCBI database accession number of NM_002659.4), CCK1R (NP_000721.1), CCK2R (NP_001350481.1), HER2 (NP_004439.2), GRPR (NP_005305.1), MUC1 (NP_001358649.1), VEGFR1 (NP_002010.2), Insulin receptor (NM_000208.4), NTR (XM_011528827.2), PSMA (XM_017017432.1), TFR1 (NM_001128148.3), TFR2 (NM_003227.4), PEPT1 (NM_005073.4), APN (NM_001150.3). […] We detected the interaction of GhJAZ1 with uPA (as the ligand of uPAR, NCBI database accession number of NP_002649.2) and uPAR by yeast two hybrid (the steps of the experiment as Example 3). […]

B1: GhJAZ1: cotton JAZ1 protein, gene number Gh_A05G0260, sequence SEQ ID No. 4; prokaryotically expressed with His tag, about 30 KD (protein)
chain: MSSCSESTAMKPARSPEKPSFAQTCNLLSQYLKEKGSFGDLSLGMTCNVEANGTPVVPPPTMNLFPLNDKSDDVCGRNGGNPKNLTSMDLFPQQAGLASKDDSPNKLEPQTAPMTIFYGGQVIVFNDFPANKAKEIMLLASNSSSQSNNSFNPIPFTSSIARSPIESSIGVPPTSKPVHPAQRAVPGDLPIARRASLHRFLEKRKDRITAKAPYQINNSAAAPSLSGDNKSWLGLAAQSP
modifications: His tag
notes: prokaryotically expressed with His tag, about 30 KD
For B1, the “interaction with the ATF domain of uPA” value is recorded as “interacts”.

Source of the values: patent US20240279288A1, “APPLICATION OF PLANT JAZ PROTEINS AND DERIVED POLYPEPTIDES IN PREVENTION AND TREATMENT OF HUMAN AND ANIMAL TUMORS” (ANYANG INSTITUTE OF SINO-COTTON INDUSTRY INNOVATION, priority 2021, published 2024).
